Data taken from US20190233495A1 (Sanofi, published 2019).
Non-standard residues stand in square brackets, D forms with d. 1Nal = N[C@@H](Cc1cccc2ccccc12)C(=O)O; Nle = CCCC[C@H](N)C(=O)O; Aib = CC(C)(N)C(=O)O

T1: RXFP1 receptor (UniProt Q9HBX9 1-757, limits assumed)
T1 sequence (looked up): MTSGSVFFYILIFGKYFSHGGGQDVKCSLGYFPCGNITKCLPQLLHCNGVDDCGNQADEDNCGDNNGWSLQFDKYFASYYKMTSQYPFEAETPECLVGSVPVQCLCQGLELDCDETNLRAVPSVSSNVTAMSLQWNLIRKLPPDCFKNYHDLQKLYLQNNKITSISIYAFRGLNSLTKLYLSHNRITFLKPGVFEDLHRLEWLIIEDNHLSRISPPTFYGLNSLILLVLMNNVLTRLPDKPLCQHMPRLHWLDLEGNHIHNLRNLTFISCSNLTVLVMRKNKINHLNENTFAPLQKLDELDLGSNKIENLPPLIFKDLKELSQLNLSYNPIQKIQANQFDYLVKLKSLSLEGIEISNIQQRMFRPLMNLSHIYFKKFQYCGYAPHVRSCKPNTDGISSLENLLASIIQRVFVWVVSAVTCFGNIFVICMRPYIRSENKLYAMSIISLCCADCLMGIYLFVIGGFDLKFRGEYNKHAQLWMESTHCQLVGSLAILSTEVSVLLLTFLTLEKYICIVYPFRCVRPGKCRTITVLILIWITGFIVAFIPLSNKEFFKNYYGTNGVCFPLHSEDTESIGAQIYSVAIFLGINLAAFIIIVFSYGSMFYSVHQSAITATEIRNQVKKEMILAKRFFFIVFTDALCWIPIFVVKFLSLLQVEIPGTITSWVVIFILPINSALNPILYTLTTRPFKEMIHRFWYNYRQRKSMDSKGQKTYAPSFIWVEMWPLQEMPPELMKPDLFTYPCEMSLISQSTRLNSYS

B1: SEQ ID NO: 9 (peptide)
peptide: Ac-LEGREKVRAQI[Aib]IEGMSK[1Nal]SKRKK-NH2
SMILES: CC[C@H](C)[C@H](NC(=O)[C@H](CCC(N)=O)NC(=O)[C@H](C)NC(=O)[C@H](CCCNC(=N)N)NC(=O)[C@@H](NC(=O)[C@H](CCCCN)NC(=O)[C@H](CCC(=O)O)NC(=O)[C@H](CCCNC(=N)N)NC(=O)CNC(=O)[C@H](CCC(=O)O)NC(=O)[C@H](CC(C)C)NC(C)=O)C(C)C)C(=O)NC(C)(C)C(=O)N[C@H](C(=O)N[C@@H](CCC(=O)O)C(=O)NCC(=O)N[C@@H](CCSC)C(=O)N[C@@H](CO)C(=O)N[C@@H](CCCCN)C(=O)N[C@@H](Cc1cccc2ccccc12)C(=O)N[C@@H](CO)C(=O)N[C@@H](CCCCN)C(=O)N[C@@H](CCCNC(=N)N)C(=O)N[C@@H](CCCCN)C(=O)N[C@@H](CCCCN)C(N)=O)[C@@H](C)CC
B2: SEQ ID NO: 8 (peptide)
peptide: Ac-LEGREKVRAQI[Aib]IEG[Nle]SKWSKRKK-NH2
SMILES: CCCC[C@H](NC(=O)CNC(=O)[C@H](CCC(=O)O)NC(=O)[C@@H](NC(=O)C(C)(C)NC(=O)[C@@H](NC(=O)[C@H](CCC(N)=O)NC(=O)[C@H](C)NC(=O)[C@H](CCCNC(=N)N)NC(=O)[C@@H](NC(=O)[C@H](CCCCN)NC(=O)[C@H](CCC(=O)O)NC(=O)[C@H](CCCNC(=N)N)NC(=O)CNC(=O)[C@H](CCC(=O)O)NC(=O)[C@H](CC(C)C)NC(C)=O)C(C)C)[C@@H](C)CC)[C@@H](C)CC)C(=O)N[C@@H](CO)C(=O)N[C@@H](CCCCN)C(=O)N[C@@H](Cc1c[nH]c2ccccc12)C(=O)N[C@@H](CO)C(=O)N[C@@H](CCCCN)C(=O)N[C@@H](CCCNC(=N)N)C(=O)N[C@@H](CCCCN)C(=O)N[C@@H](CCCCN)C(N)=O
B3: SEQ ID NO: 10 (peptide)
peptide: Ac-LEGREKVRAQI[Aib][Aib]EGMSTWSKRKK-NH2
SMILES: CC[C@H](C)[C@H](NC(=O)[C@H](CCC(N)=O)NC(=O)[C@H](C)NC(=O)[C@H](CCCNC(=N)N)NC(=O)[C@@H](NC(=O)[C@H](CCCCN)NC(=O)[C@H](CCC(=O)O)NC(=O)[C@H](CCCNC(=N)N)NC(=O)CNC(=O)[C@H](CCC(=O)O)NC(=O)[C@H](CC(C)C)NC(C)=O)C(C)C)C(=O)NC(C)(C)C(=O)NC(C)(C)C(=O)N[C@@H](CCC(=O)O)C(=O)NCC(=O)N[C@@H](CCSC)C(=O)N[C@@H](CO)C(=O)N[C@H](C(=O)N[C@@H](Cc1c[nH]c2ccccc12)C(=O)N[C@@H](CO)C(=O)N[C@@H](CCCCN)C(=O)N[C@@H](CCCNC(=N)N)C(=O)N[C@@H](CCCCN)C(=O)N[C@@H](CCCCN)C(N)=O)[C@@H](C)O
B4: SEQ ID NO: 7 (peptide)
peptide: Ac-LEGREKVR[Aib]QI[Aib]IEGMSKWSKRKK-NH2
SMILES: CC[C@H](C)[C@H](NC(=O)[C@H](CCC(N)=O)NC(=O)C(C)(C)NC(=O)[C@H](CCCNC(=N)N)NC(=O)[C@@H](NC(=O)[C@H](CCCCN)NC(=O)[C@H](CCC(=O)O)NC(=O)[C@H](CCCNC(=N)N)NC(=O)CNC(=O)[C@H](CCC(=O)O)NC(=O)[C@H](CC(C)C)NC(C)=O)C(C)C)C(=O)NC(C)(C)C(=O)N[C@H](C(=O)N[C@@H](CCC(=O)O)C(=O)NCC(=O)N[C@@H](CCSC)C(=O)N[C@@H](CO)C(=O)N[C@@H](CCCCN)C(=O)N[C@@H](Cc1c[nH]c2ccccc12)C(=O)N[C@@H](CO)C(=O)N[C@@H](CCCCN)C(=O)N[C@@H](CCCNC(=N)N)C(=O)N[C@@H](CCCCN)C(=O)N[C@@H](CCCCN)C(N)=O)[C@@H](C)CC

Each binder was assayed against T1, RXFP1 receptor (assay: cell-based or functional assay).

Row | Binder | cAMP assay in OVCAR 5 cells EC50 [nM] | cAMP assay in OVCAR 5 cells Emax [%]
1 | B1 | 37.6 | 100
2 | B2 | 60 | 103
3 | B3 | 22.9 | 103
4 | B4 | 56.6 | 101
